Series [1] deals with T1, variant nuclease 7 substitutions D590G/E154G/E736G (P14R, D32R, I61R, E311R, D590G, E154G, E736G).
T1 chain: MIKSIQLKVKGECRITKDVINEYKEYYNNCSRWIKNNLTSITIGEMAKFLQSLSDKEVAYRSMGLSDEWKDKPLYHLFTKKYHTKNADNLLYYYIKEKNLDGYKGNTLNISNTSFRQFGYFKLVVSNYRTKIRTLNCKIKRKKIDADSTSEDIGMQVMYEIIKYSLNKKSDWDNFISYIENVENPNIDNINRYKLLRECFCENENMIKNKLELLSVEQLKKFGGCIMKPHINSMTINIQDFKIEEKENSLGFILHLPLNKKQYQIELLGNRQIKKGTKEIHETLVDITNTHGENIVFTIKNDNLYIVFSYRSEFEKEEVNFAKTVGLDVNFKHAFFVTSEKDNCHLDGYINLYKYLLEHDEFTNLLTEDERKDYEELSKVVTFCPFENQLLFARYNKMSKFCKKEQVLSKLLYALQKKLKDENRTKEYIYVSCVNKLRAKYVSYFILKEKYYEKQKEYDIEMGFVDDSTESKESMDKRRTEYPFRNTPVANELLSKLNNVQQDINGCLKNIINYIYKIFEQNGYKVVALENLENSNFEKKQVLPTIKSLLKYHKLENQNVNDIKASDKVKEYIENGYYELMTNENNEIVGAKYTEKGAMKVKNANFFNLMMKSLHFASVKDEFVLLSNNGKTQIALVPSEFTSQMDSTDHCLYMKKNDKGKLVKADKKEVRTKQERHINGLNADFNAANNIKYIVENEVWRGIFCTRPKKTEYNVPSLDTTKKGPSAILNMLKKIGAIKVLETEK
Kind of series: cell_activity; PAM 5'-TTTG-3'. Particulars: tags: pcDNA3.1 expression. The protocol: Approximately 16 hours prior to transfection, 25,000 HEK293T cells in DMEM/10% FBS+Pen/Strep (D10 media) were plated into each well of a 96-well plate. On the day of transfection, the cells were 70-90% confluent. For each well to be transfected, a mixture of Lipofectamine 2000™ and Opti-MEM™ was prepared and incubated at room temperature for 5 minutes (Solution 1). After incubation, the Lipofectamine 2000™:Opti-MEM™ mixture was added to a separate mixture containing nuclease plasmid, RNA guide plasmid, and Opti-MEM™ (Solution 2). In the case of negative controls, the RNA guide plasmid was not included in Solution 2. Solutions 1 and 2 were mixed by pipetting up and down, then incubated at room temperature for 25 minutes. Following incubation, the Solution 1 and 2 mixture was added dropwise to each well of a 96-well plate containing the cells. Approximately 72 hours post transfection, cells were trypsinized by adding TrypLE™ to the center of each well and incubating at 37° C. for approximately 5 minutes. D10 media was then added to each well and mixed to resuspend cells. The resuspended cells were centrifuged at 500 g for 10 minutes to obtain a pellet, and the supernatant was discarded. The cell pellet was then resuspended in QuickExtract™ buffer (Lucigen®), and cells were incubated at 65° C. for 15 minutes, 68° C. for 15 minutes, and 98° C. for 10 minutes.
This Example describes assessment of indel activity at multiple target sites using the wild-type polypeptide of SEQ ID NO: 3 or variant polypeptides of Table 4. The variant polypeptides were cloned into a pcDNA3.1 backbone (Invitrogen), and the cells were transfected as described in Example 7.
The percentage of NGS reads containing indels (% indels) were calculated. For each variant polypeptide and target, % indels were averaged across two bioreplicates and two technical replicates. These values were then compared to % indels of the wild-type polypeptide of SEQ ID NO: 3.

The target in series [2] is T2, variant nuclease SEQ ID NO: 53 (P14R, D32R, I61R, E311R, T338G, E736G).
T2 chain: T1 chain with G154E, T338G, G590D
Kind of series: cell_activity; % indels; HEK293T; PAM 5'-TTTA-3'. The following applies: tags: pcDNA3.1 expression.

Substitutions are numbered along the chain they refer to.

B1: AAVS1 crRNA ; AAVS1 target (ssRNA ; dsDNA)
RNA: CUUGUUGUAUAUGUCCUUUUAUAGGUAUUAAACAACUGAGAAUGGUGCGUCCUAGG
DNA 1: TGAGAATGGTGCGTCCTAGG
DNA 2: CCTAGGACGCACCATTCTCA
Regarding B1, in series [1], the indel activity is 5.91 fold of WT.

B2: VEGFA crRNA ; VEGFA target (ssRNA ; dsDNA)
RNA: CUUGUUGUAUAUGUCCUUUUAUAGGUAUUAAACAACUCCAGACCACCAAUGGGCAC
DNA 1: TCCAGACCACCAATGGGCAC
DNA 2: GTGCCCATTGGTGGTCTGGA
For the molecule B2, the indel editing activity in series [2] was 3.04 fold of WT.

(Values after patent US20240035010, “COMPOSITIONS COMPRISING A VARIANT POLYPEPTIDE AND USES THEREOF” (Arbor Biotechnologies, Inc., published 2024).)
